Paper PMC6717526 (Cellular signalling, 2019)

Target: bovine arrestin-3^1−393 (truncated arrestin-3, residues 1–393), purified (bovine, UniProt P32120 1-393)
Test: MST

bovine arrestin-3^1−393 (truncated arrestin-3, residues 1–393), purified, sequence (P32120 1-393): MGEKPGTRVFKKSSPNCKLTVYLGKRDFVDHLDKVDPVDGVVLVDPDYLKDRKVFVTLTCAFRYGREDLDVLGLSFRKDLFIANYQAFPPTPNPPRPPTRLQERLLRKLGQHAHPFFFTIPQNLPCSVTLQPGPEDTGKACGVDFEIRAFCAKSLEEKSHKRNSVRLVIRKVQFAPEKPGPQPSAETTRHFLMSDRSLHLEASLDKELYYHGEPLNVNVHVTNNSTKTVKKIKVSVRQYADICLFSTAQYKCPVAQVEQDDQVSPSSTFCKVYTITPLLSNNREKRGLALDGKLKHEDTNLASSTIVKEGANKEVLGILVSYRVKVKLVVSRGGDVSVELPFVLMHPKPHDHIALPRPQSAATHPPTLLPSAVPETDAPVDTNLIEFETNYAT

B1: human His-MELK^1−326,T167E (maternal embryonic leucine-zipper kinase, kinase domain and flanking ubiquitin-associated domain, residues 1–326, T167E) (domain or fragment, UniProt Q14680 1-326, looked up)
chain: MKDYDELLKYYELHETIGTGGFAKVKLACHILTGEMVAIKIMDKNTLGSDLPRIKTEIEALKNLRHQHICQLYHVLETANKIFMVLEYCPGGELFDYIISQDRLSEEETRVVFRQIVSAVAYVHSQGYAHRDLKPENLLFDEYHKLKLIDFGLCAKPKGNKDYHLQECCGSLAYAAPELIQGKSYLGSEADVWSMGILLYVLMCGFLPFDDDNVMALYKKIMRGKYDVPKWLSPSSILLLQQMLQVDPKKRISMKNLLNHPWIMQDYNYPVEWQSKNPFIHLDDDCVTELSVHHRNNRQTMEDLISLWQYDHLTATYLLLLAKKAR
modifications: RED-tris-NTA dye on the His tag (in the MST experiment only)
Kd: 130 ± 35 nM
